{
  "source": "patent US20200207850A1",
  "about": "(MacroGenics, published 2020)",
  "binders": {"B1": {"name": "B7-H3 mAb 1/CD3 mAb 2/CD8 mAb 1 Tri-Specific Binding Molecule (other)", "chain 1": "DIQMTQSPSSLSASVGDRVTITCRASQDISNYLNWYQQKPGKAPKLLIYYTSRLHSGVPSRFSGSGSGTDFTLTISSLQPEDIATYYCQQGNTLPPTFGGGTKLEIKGGGSGGGGEVQLVESGGGLVQPGGSLRLSCAASGFTFSTYAMNWVRQAPGKGLEWVGRIRSKYNNYATYYADSVKDRFTISRDDSKNSLYLQMNSLKTEDTAVYYCVRHGNFGNSYVSWFAYWGQGTLVTVSSGGCGGGEVAALEKEVAALEKEVAALEKEVAALEKGGGDKTHTCPPCPAPEAAGGPSVFLFPPKPKDTLMISRTPEVTCVVVDVSHEDPEVKFNWYVDGVEVHNAKTKPREEQYNSTYRVVSVLTVLHQDWLNGKEYKCKVSNKALPAPIEKTISKAKGQPREPQVYTLPPSREEMTKNQVSLWCLVKGFYPSDIAVEWESNGQPENNYKTTPPVLDSDGSFFLYSKLTVDKSRWQQGNVFSCSVMHEALHNHYTQKSLSLSPGK", "chain 2": "QAVVTQEPSLTVSPGGTVTLTCRSSTGAVTTSNYANWVQQKPGQAPRGLIGGTNKRAPWTPARFSGSLLGGKAALTITGAQAEDEADYYCALWYSNLWVFGGGTKLTVLGGGGSGGGGQVQLVQSGAEVKKPGASVKVSCKASGYTFTSYWMQWVRQAPGQGLEWMGTIYPGDGDTRYTQKFKGRVTITADKSTSTAYMELSSLRSEDTAVYYCARRGIPRLWYFDVWGQGTTVTVSSGGCGGGKVAALKEKVAALKEKVAALKEKVAALKE", "heavy": "EVQLQQSGAELVKPGASVKLSCTASGFNIKDTYIHFVRQRPEQGLEWIGRIDPANDNTLYASKFQGKATITADTSSNTAYMHLCSLTSGDTAVYYCGRGYGYYVFDHWGQGTTLTVSSASTKGPSVFPLAPSSKSTSGGTAALGCLVKDYFPEPVTVSWNSGALTSGVHTFPAVLQSSGLYSLSSVVTVPSSSLGTQTYICNVNHKPSNTKVDKRVEPKSCDKTHTCPPCPAPEAAGGPSVFLFPPKPKDTLMISRTPEVTCVVVDVSHEDPEVKFNWYVDGVEVHNAKTKPREEQYNSTYRVVSVLTVLHQDWLNGKEYKCKVSNKALPAPIEKTISKAKGQPREPQVYTLPPSREEMTKNQVSLSCAVKGFYPSDIAVEWESNGQPENNYKTTPPVLDSDGSFFLVSKLTVDKSRWQQGNVFSCSVMHEALHNRYTQKSLSLSPGK", "light": "DVQINQSPSFLAASPGETITINCRTSRSISQYLAWYQEKPGKTNKLLIYSGSTLQSGIPSRFSGSGSGTDFTLTISGLEPEDFAMYYCQQHNENPLTFGAGTKLELRRTVAAPSVFIFPPSDEQLKSGTASVVCLLNNFYPREAKVQWKVDNALQSGNSQESVTEQDSKDSTYSLSSTLTLSKADYEKHKVYACEVTHQGLSSPVTKSFNRGEC", "notes": "Four different polypeptide chains covalently complexed, with Fc Domain"}},
  "key": {"[1]": {"molecular_target": "T1, B7-H3 on A498 and JIMT-1 target cells (UniProt Q5ZPR3 29-534, limits assumed)", "T1 sequence (looked up)": "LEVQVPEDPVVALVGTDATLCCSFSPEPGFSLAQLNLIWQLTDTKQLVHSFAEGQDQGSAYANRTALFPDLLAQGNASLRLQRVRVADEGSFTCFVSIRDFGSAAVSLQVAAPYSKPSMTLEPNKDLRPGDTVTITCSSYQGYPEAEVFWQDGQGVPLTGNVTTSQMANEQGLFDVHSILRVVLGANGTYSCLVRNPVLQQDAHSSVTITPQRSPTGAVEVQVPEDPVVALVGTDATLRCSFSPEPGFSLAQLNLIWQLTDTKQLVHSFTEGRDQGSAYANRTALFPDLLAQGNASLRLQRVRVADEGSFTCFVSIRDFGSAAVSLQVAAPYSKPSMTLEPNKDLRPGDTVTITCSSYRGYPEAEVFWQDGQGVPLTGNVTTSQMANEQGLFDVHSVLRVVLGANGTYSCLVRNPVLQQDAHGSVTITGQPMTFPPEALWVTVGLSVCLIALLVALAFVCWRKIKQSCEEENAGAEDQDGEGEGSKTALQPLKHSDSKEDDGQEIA", "experiment": "cell-based or functional assay"}, "[2]": {"molecular_target": "T2, CD8 on human T cells (PBMC) (human, UniProt P01732 22-235)", "T2 construct": "whole, on cells; The CD8+ (CD5+ CD4-) cells also carry CD3; also called CD5+ CD4- gated PBMC; CD8+ T cells", "T2 sequence (P01732 22-235)": "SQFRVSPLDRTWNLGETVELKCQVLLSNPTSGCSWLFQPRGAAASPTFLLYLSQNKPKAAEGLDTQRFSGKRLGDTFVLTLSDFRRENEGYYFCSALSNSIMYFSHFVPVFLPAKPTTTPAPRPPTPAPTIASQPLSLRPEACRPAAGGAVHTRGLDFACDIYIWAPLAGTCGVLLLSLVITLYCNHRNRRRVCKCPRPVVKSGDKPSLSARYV", "experiment": "flow cytometry, binding to human CD5+/CD4- cells (bear CD8 and CD3) (MFI)"}, "[3]": {"molecular_target": "T2, CD8 on human T cells (PBMC)", "experiment": "flow cytometry on human PBMC, CD5+/CD4- gated cells (bear CD8 and CD3), detection anti-human Fc (MFI)"}, "[4]": {"molecular_target": "T2, CD8 on human T cells (PBMC)", "experiment": "flow cytometry on human PBMC, CD5+/CD4- gated cells (bear CD8 and CD3), detection PE anti-human Fc (MFI)", "method": "50 μL (4×10⁶ cells/mL) of well-mixed cells in FACS buffer containing 0.01% sodium azide were then added into corresponding wells and mixed thoroughly using a pipette. The plate was incubated in the dark for about 45 minutes at 2-8° C. At the end of the incubation, the cells were washed twice by adding 300 μL of FACS buffer to each well, centrifuging the plate at 1,200 rpm for 5 minutes, and discarding the supernatant. The cell pellets were re-suspended in 100 μL mixture of PE-conjugated goat anti-Human Fcγ 1:500 diluted, CD5-APC and CD4-PerCP5.5 in FACS buffer containing 0.01% sodium azide, and incubated in the dark for about 45 minutes at 2-8° C. At the end of the incubation, the cells were washed, re-suspended with FACS buffer, and analyzed with a BD Caliber flow cytometer. Cells were gated to CD5⁺ CD4⁺ (FIG. 9A) or CD5⁺ CD4⁻ (FIG. 9B)."}, "[5]": {"molecular_target": "T1, B7-H3 on A498 and JIMT-1 target cells", "experiment": "cell-based or functional assay", "remark": "listed apart in the source"}},
  "data": [
    {"binder": "B1", "values": [
      {"measurement": "EC50 (nM) of killing, CD4+ effector cells, JIMT1-luc target cells, E:T 5:1", "setting": "[1]", "value": 0.0721, "unit": "nM"},
      {"measurement": "EC50 (nM) of killing, CD8+ effector cells, JIMT1-luc target cells, E:T 5:1", "setting": "[1]", "value": 0.0054, "unit": "nM"},
      {"measurement": "EC50 (nM) of killing, PanT effector cells, JIMT1-luc target cells, E:T 5:1", "setting": "[1]", "value": 0.0082, "unit": "nM"},
      {"measurement": "EC50 (read off the curve)", "setting": "[2]", "value": "~2", "unit": "nM"},
      {"measurement": "EC50 (read off the curve)", "setting": "[3]", "value": "~2", "unit": "nM"},
      {"measurement": "EC50 (read off the curve)", "setting": "[4]", "value": "~2", "unit": "nM"},
      {"measurement": "LDH EC50 (pM), A498 cells", "setting": "[5]", "value": 4, "unit": "pM"},
      {"measurement": "LDH EC50 (pM), JIMT-1 cells", "setting": "[5]", "value": 0.4, "unit": "pM"},
      {"measurement": "Luciferase EC50 (pM), JIMT-1 cells", "setting": "[5]", "value": 0.6, "unit": "pM"}
    ]}
  ]
}
